Results published in patent publication US8361442B2, “Oxime conjugates and methods for their formation and use” (The General Hospital Corporation, priority 2002, dated 2013).

Key:
[1] = parameters: species or system mice and rats; conditions: in vivo
Excerpt: Biokinetics and biodistributions were studied by blood and tissue sampling in rats, mice and rabbits using ^111In labeled preparations at clinically relevant doses. Fast initial stages (if present) were studied by dynamic gamma-scintigraphy in anesthetized animals.
Biokinetics of unmodified polyals of various molecular weights were studied in normal mice, rats and rabbits. Biokinetics of model nanocarriers (PHF graft copolymers) and polyal-modified liposomes were studied in rats. Biokinetics of formylpeptide conjugates were studied in normal rabbits and rabbits with focal bacterial inflammation. Protein conjugates were studied in mice and rats.

[2] = parameters: species or system CD1 mice; conditions: mouse, in vivo, iv
Method: For animal studies, protein conjugates were labeled with [^111In] after modification of the trypsin portion of conjugates with DTPA. EDC mediated coupling was carried out in aqueous solution at DTPA/EDC/Trypsin lysine residue ratio 500:50:1 at pH 7.5. The resultant DTPA-labeled conjugates were purified by gel chromatography on Sephadex G-25. DTPA to protein molar ratio, as determined by Cu(II) colorimetric assay at 775 nm was approximately 1:4. Unmodified proteins were labeled analogously.
Labeling was performed by transchelation from [^111In] citrate. The labeling solution was prepared by mixing carrier-free [^111In] indium chloride in 0.05 M HCl with a 20-fold volume excess of 0.5 M sodium citrate, pH=5.6. The resultant [^111In] indium citrate solution was added to unbuffered solutions of DTP-modified polymers at 0.2 to 1 mCi of [^111In] per 1 mg of dry substance. The labeled conjugates were separated by gel chromatography on Sephadex G-25, with simultaneous media replacement to sterile isotonic saline. […]
Mice were euthanized at 0.25, 0.5, 1, 2, 4, and 8 hours (n=2). Blood samples and harvested organs (hart, lungs, liver, spleen, kidneys, adrenal glands, stomach, GI, testes, muscle, bone, brain and tail) were analyzed on gamma counter. The amount of radioactivity per organ was expressed as a percentage of the injected dose per gram tissue.

B1: Trypsin: Bovine pancreatic trypsin (EC 3.4.21.4) Type III; DTPA-modified, 111In-labeled for animal studies (protein, UniProt P00760 24-246, looked up)
Serine protease 1: IVGGYTCGANTVPYQVSLNSGYHFCGGSLINSQWVVSAAHCYKSGIQVRLGEDNINVVEGNEQFISASKSIVHPSYNSNTLNNDIMLIKLKSAASLNSRVASISLPTSCASAGTQCLISGWGNTKSSGTSYPDVLKCLKAPILSDSSCKSAYPGQITSNMFCAGYLEGGKDSCQGDSGGPVVCSGKLQGIVSWGSGCAQKNKPGVYTKVCNYVSWIKQTIASN
modifications: DTPA-modified, 111In-labeled
notes: Bovine pancreatic trypsin (EC 3.4.21.4) Type III; DTPA-modified, 111In-labeled for animal studies
blood half-life of unmodified protein [1]: 7 min
clearance of activity from blood within 15 minutes after administration [2]: 80%
half-life of secondary monoexponential clearance [2]: 4 ± 0.8 h
